For eight molecules, IC50 results are on record in article PMC8448959 (ACS chemical biology, 2021).

Holding throughout (assay): AlphaScreen or HTRF
The target in assay [1] is T1, MPP8 chromodomain (residues 55-116), N-terminal His-tag (UniProt Q99549-1 55-116).
T1 sequence (looked up): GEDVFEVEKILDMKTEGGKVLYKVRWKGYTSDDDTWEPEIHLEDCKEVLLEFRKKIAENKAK

Assay [2] addresses T2, CBX7 chromodomain (residues 8-62), C-terminal His-tag (UniProt O95931 8-62).
T2 sequence (looked up): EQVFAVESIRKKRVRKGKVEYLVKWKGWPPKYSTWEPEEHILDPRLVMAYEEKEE

For assay [3], the target named is T3, CDYL2 chromodomain (residues 1-75), C-terminal His-tag (UniProt Q8N8U2 1-75).
T3 sequence (looked up): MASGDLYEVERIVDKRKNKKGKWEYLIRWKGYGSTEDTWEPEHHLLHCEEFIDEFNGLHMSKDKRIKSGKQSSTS

Assay [4] deals with T1, MPP8 chromodomain (residues 55-116), …. The source holds these as a separate data set.
The target of assay [5] is T2, CBX7 chromodomain (residues 8-62), …. This is another data set of the same source.

Where two headings read alike, the source gives them in different places. Square brackets hold non-standard residues; d marks the D form. Ends that are not written are not given here. * marks the point of attachment. Lys(Et,iPr) = CCN(CCCC[C@H](N)C(=O)O)C(C)C; 4‑piperidine cap = not defined here; cyclohexyl = C1CCC(*)CC1 Where only a bound is given, the exact number is not on record here.

In the case of {4‑piperidine cap}-FAFK(cyclohexyl)S-OMe (reading uncertain; also: Lys4: lysine mimetic with a cyclohexyl substituent) [UNC6217], the IC50 in assay [1] was 0.4 µM; in assay [2], > 30 µM; in assay [3] it was 0.07 µM.

B1: UNC6254 (peptide)
chain: FAFKS
modifications: N-terminal 4-piperidine cap; lysine mimetic with increased steric bulk on the lysine amine; C-terminal methyl ester
With B1, the values for the IC50 in assay [1], in assay [2] and in assay [3] were 0.8 µM, > 30 µM and 0.2 µM, respectively.
Take FAF[Lys(Et,iPr)]S-OMe (not fully specified (N-terminus); also: N-terminal cap R1 not given here) [UNC6257]: the results for the IC50 in assay [4] and in assay [5] were 0.4 µM and 7 µM, respectively.
The like results for FAF[Lys(Et,iPr)]S-OMe (not fully specified (N-terminus); also: N-terminal cap R1 not given here) [UNC6263] were, in that order, 0.9 µM and 6 µM.
Regarding {4‑piperidine cap}-FAFKS-OMe (reading uncertain; also: Lys4: lysine mimetic with a pyrroline substituent) [UNC6262], the IC50 in assay [1] was 1.4 µM; in assay [2], > 30 µM; in assay [3], 0.7 µM.
The like results for {4‑piperidine cap}-FAFKS-OMe (reading uncertain; also: lysine mimetic with a piperidine substituent) [UNC6127] were, in that order, 0.7 µM, > 30 µM and 0.2 µM.

B2: UNC6218 (peptide)
chain: {4‑piperidine cap}-FAFKS-OMe
modifications: reading uncertain; also: Lys4: lysine mimetic with a tetrahydropyran substituent
For the molecule B2, the results for the IC50 in assay [1], in assay [2] and in assay [3] were 0.5 µM, > 30 µM and 0.1 µM, respectively.

B3: UNC6216 (peptide)
chain: FAFKS
modifications: N-terminal 4-piperidine cap; lysine mimetic with a methyl-cyclopentyl amine; C-terminal methyl ester
On to B3, for which the IC50 in assay [1] was 0.45 µM; in assay [2] it was > 30 µM; in assay [3], 0.09 µM.
